Data as given in patent US20090148510A1 (Stanford University, published 2009).

Tests used:
[1] = biological target: T1, purified β2AR having an amino terminal Flag epitope tag and a carboxyl hexahistidine tag (UniProt P07550 1-413); experiment: isothermal titration calorimetry, detergent-solubilized β2AR, 25° C.
T1 construct: also called β2 adrenoreceptor; denatured β2AR (when treated with SDS); not shown: carboxyl hexahistidine tag (six His)
Description: ITC measurements were performed at 25° C. using a VP-ITC calorimeter (Microcal, Inc.). […] Titrations were initiated with a 3 μl injection, followed by a series of 8 μl injections (37 β₂AR and 31 for β₂AR buffer blank), with 240 s between injections. After subtracting the blank titration, the measured heat released upon binding was plotted against the Fab:β₂AR molar ratio, and the data were fitted to a single-site binding model to obtain the association constant Ka, enthalpy change ΔH, and stoichiometry n using the Origin software package¹ (Microcal, Inc.)

[2] = biological target: T2, β2AR labeled at C265 with tetramethylrhodamine (UniProt P07550 1-413, tetramethylrhodamine on C265); experiment: antibody dose-response on fluorescence of β2AR-TMR (labeled at C265), 4 nM receptor
T2 construct: Detergent-solubilized (0.1% dodecylmaltoside) purified receptor; also called β2AR-TMR

| Kd [1] [µM] | EC50 [2] [µM] | Binder |
| --- | --- | --- |
| 0.15 | – | Fab 5 (Fab fragment of antibody 5) (Fab, V domains shown, Made by papain cleavage of purified mouse antibody 5 and purified by ion exchange (Mono Q) chromatography; also called Fab5 antibody; Fab 5 fragments) VH: EVQLQQSGAELARPGASVKLSCKASGYIFTDYYINWVRQRTGQGFEWIGEIYPGSGNIDYNERFKDKATLTADKSSSTAYMQLSSLTSEDSAVYFCVRGFGYWGQGTTLTVSS VL: DIKMTQSPSSMYASLGERVTITCKASQDINSYLSWFQQKPGKSPKTLIYRANRLVDGVPSRFIGTGSGQDYSLTISSLDYEDMGIYYCLQYDEFPYTFGGGTKLEIKR |
| – | 0.023 | antibody 5 (intact mouse monoclonal antibody) (antibody, V domains shown, Mouse IgG from hybridoma; also called Mab5; Mab5 IgG) VH: EVQLQQSGAELARPGASVKLSCKASGYIFTDYYINWVRQRTGQGFEWIGEIYPGSGNIDYNERFKDKATLTADKSSSTAYMQLSSLTSEDSAVYFCVRGFGYWGQGTTLTVSS VL: DIKMTQSPSSMYASLGERVTITCKASQDINSYLSWFQQKPGKSPKTLIYRANRLVDGVPSRFIGTGSGQDYSLTISSLDYEDMGIYYCLQYDEFPYTFGGGTKLEIKR |
